These are literature values, as cited in PMC10578080.

This data set has as its target neuronal ternary SNARE complex (Rattus norvegicus) (UniProt P32851).
UniProt P32851, sequence (P32851 whole entry, chain 1 of 3): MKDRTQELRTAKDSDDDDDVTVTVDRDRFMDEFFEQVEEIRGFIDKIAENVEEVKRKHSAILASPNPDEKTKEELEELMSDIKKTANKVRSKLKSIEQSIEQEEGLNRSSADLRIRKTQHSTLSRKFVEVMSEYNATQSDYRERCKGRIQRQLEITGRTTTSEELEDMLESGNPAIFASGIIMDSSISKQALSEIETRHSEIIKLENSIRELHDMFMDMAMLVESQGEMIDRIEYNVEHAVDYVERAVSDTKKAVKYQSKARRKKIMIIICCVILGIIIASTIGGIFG
UniProt P32851, sequence (B2RAU4 whole entry, chain 2 of 3, further chain): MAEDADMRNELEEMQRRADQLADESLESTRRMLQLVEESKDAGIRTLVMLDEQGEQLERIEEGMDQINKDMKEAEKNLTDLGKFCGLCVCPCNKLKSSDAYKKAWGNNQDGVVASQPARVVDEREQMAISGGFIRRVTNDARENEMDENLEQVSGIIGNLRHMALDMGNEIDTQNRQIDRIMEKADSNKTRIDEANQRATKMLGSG
UniProt P32851, sequence (P63044 2-116, chain 3 of 3, further chain): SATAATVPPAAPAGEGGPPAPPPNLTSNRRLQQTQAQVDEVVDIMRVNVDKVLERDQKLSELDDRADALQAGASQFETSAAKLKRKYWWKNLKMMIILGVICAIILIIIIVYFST

What is called Kd is the concentration at which binding is half-saturated. On to “Cpx1 central domain (from UniProt P63041)”, for which the Kd was 0.01 µM.
